{"source": "patent US20250263462A1", "about": "(US Dept. of Health and Human Services, published 2025)", "binders": {"B1": {"name": "TRAV12N-3*01/BV4*01 murine anti-KRAS G12D TCR (SEQ ID NOs: 11 and 12) (TCR, V domains shown)", "V domain 1": "GDSVTQTEGLVTLTEGLPVMLNCTYQTIYSNPFLFWYVQHLNESPRLLLKSFTDNKRTEHQGFHATLHKSSSSFHLQKSSAQLSDSALYYCALRGNAGAKLTFGGGTRLTVRP", "V domain 2": "ETAVFQTPNYHVTQVGNEVSFNCKQTLGHDTMYWYKQDSKKLLKIMFSYNNKQLIVNETVPRRFSPQSSDKAHLNLRIKSVEPEDSAVYLCASSSRDWSAETLYFGSGTRLTVLE"}}, "assay_in_all_cases": "cell-based or functional assay", "key": {"[1]": {"biological_target": "KRAS G12D 9-mer peptide KRAS7-15 … (SEQ ID NO: 124) presented by HLA-A11 on pulsed cells (human, UniProt A*11:01)"}, "[2]": {"biological_target": "T1, WT KRAS 10-mer peptide (SEQ ID NO: 30) presented by HLA-A11 on pulsed cells (human, UniProt A*11:01)"}, "[3]": {"biological_target": "KRAS G12V 10-mer peptide … (SEQ ID NO: 33) presented by HLA-A11 on pulsed cells (human, UniProt A*11:01)"}, "[4]": {"biological_target": "T2, KRAS G12D 9-mer peptide KRAS8-16 … (SEQ ID NO: 34) presented by HLA-A11 on pulsed cells (human, UniProt A*11:01)"}, "[5]": {"biological_target": "HLA-A11 on COS7/A11 cells expressing the WT KRAS minigene (23-mer SEQ ID NO: 118) (human, UniProt A*11:01)"}, "[6]": {"biological_target": "HLA-A11 on COS7/A11 cells expressing the KRAS G12D minigene (23-mer SEQ ID NO: 119) (human, UniProt A*11:01)"}, "[7]": {"biological_target": "HLA-A11 on COS7/A11 cells expressing the KRAS G12V minigene (23-mer SEQ ID NO: 120) (human, UniProt A*11:01)"}, "[8]": {"biological_target": "T1, WT KRAS 10-mer peptide (SEQ ID NO: 30) …", "remark": "listed apart in the source"}, "[9]": {"biological_target": "WT KRAS 9-mer peptide (SEQ ID NO: 31) presented by HLA-A11 on pulsed cells (human, UniProt A*11:01)"}, "[10]": {"biological_target": "T2, KRAS G12D 9-mer peptide KRAS8-16 … (SEQ …)", "remark": "listed apart in the source"}}, "data": [{"binder": "B1", "values": [{"measurement": "IFN-γ, PBL + COS7/A11 pulsed at 1 × 10^-6 M", "setting": "[1]", "result": 87, "unit": "pg/mL"}, {"measurement": "IFN-γ, PBL + COS7/A11 pulsed at 1 × 10^-7 M", "setting": "[1]", "result": 91, "unit": "pg/mL"}, {"measurement": "IFN-γ, PBL + COS7/A11 pulsed at 1 × 10^-8 M", "setting": "[1]", "result": 72, "unit": "pg/mL"}, {"measurement": "IFN-γ, PBL + COS7/A11 pulsed at 1 × 10^-9 M", "setting": "[1]", "result": 90, "unit": "pg/mL"}, {"measurement": "IFN-γ, PBL + COS7/A11 pulsed at 1 × 10^-10 M", "setting": "[1]", "result": 90, "unit": "pg/mL"}, {"measurement": "IFN-γ, PBL + COS7/A11 pulsed at 1 × 10^-11 M", "setting": "[1]", "result": 95, "unit": "pg/mL"}, {"measurement": "IFN-γ, PBL + COS7/A11 pulsed at 1 × 10^-12 M", "setting": "[1]", "result": 83, "unit": "pg/mL"}, {"measurement": "IFN-γ, PBL + COS7/A11 pulsed at 1 × 10^-13 M", "setting": "[1]", "result": 112, "unit": "pg/mL"}, {"measurement": "IFN-γ, PBL + COS7/A11 pulsed at 1 × 10^-6 M", "setting": "[2]", "result": 78, "unit": "pg/mL"}, {"measurement": "IFN-γ, PBL + COS7/A11 pulsed at 1 × 10^-7 M", "setting": "[2]", "result": 88, "unit": "pg/mL"}, {"measurement": "IFN-γ, PBL + COS7/A11 pulsed at 1 × 10^-8 M", "setting": "[2]", "result": 102, "unit": "pg/mL"}, {"measurement": "IFN-γ, PBL + COS7/A11 pulsed at 1 × 10^-9 M", "setting": "[2]", "result": 99, "unit": "pg/mL"}, {"measurement": "IFN-γ, PBL + COS7/A11 pulsed at 1 × 10^-10 M", "setting": "[2]", "result": 95, "unit": "pg/mL"}, {"measurement": "IFN-γ, PBL + COS7/A11 pulsed at 1 × 10^-11 M", "setting": "[2]", "result": 86, "unit": "pg/mL"}, {"measurement": "IFN-γ, PBL + COS7/A11 pulsed at 1 × 10^-12 M", "setting": "[2]", "result": 102, "unit": "pg/mL"}, {"measurement": "IFN-γ, PBL + COS7/A11 pulsed at 1 × 10^-13 M", "setting": "[2]", "result": 98, "unit": "pg/mL"}, {"measurement": "IFN-γ, PBL + COS7/A11 pulsed at 1 × 10^-6 M", "setting": "[3]", "result": 97, "unit": "pg/mL"}, {"measurement": "IFN-γ, PBL + COS7/A11 pulsed at 1 × 10^-7 M", "setting": "[3]", "result": 83, "unit": "pg/mL"}, {"measurement": "IFN-γ, PBL + COS7/A11 pulsed at 1 × 10^-8 M", "setting": "[3]", "result": 86, "unit": "pg/mL"}, {"measurement": "IFN-γ, PBL + COS7/A11 pulsed at 1 × 10^-9 M", "setting": "[3]", "result": 88, "unit": "pg/mL"}, {"measurement": "IFN-γ, PBL + COS7/A11 pulsed at 1 × 10^-10 M", "setting": "[3]", "result": 88, "unit": "pg/mL"}, {"measurement": "IFN-γ, PBL + COS7/A11 pulsed at 1 × 10^-11 M", "setting": "[3]", "result": 86, "unit": "pg/mL"}, {"measurement": "IFN-γ, PBL + COS7/A11 pulsed at 1 × 10^-12 M", "setting": "[3]", "result": 96, "unit": "pg/mL"}, {"measurement": "IFN-γ, PBL + COS7/A11 pulsed at 1 × 10^-13 M", "setting": "[3]", "result": 97, "unit": "pg/mL"}, {"measurement": "IFN-γ, PBL + COS7/A11 pulsed at 1 × 10^-6 M", "setting": "[4]", "result": 136, "unit": "pg/mL"}, {"measurement": "IFN-γ, PBL + COS7/A11 pulsed at 1 × 10^-7 M", "setting": "[4]", "result": 95, "unit": "pg/mL"}, {"measurement": "IFN-γ, PBL + COS7/A11 pulsed at 1 × 10^-8 M", "setting": "[4]", "result": 99, "unit": "pg/mL"}, {"measurement": "IFN-γ, PBL + COS7/A11 pulsed at 1 × 10^-9 M", "setting": "[4]", "result": 90, "unit": "pg/mL"}, {"measurement": "IFN-γ, PBL + COS7/A11 pulsed at 1 × 10^-10 M", "setting": "[4]", "result": 85, "unit": "pg/mL"}, {"measurement": "IFN-γ, PBL + COS7/A11 pulsed at 1 × 10^-11 M", "setting": "[4]", "result": 85, "unit": "pg/mL"}, {"measurement": "IFN-γ, PBL + COS7/A11 pulsed at 1 × 10^-12 M", "setting": "[4]", "result": 94, "unit": "pg/mL"}, {"measurement": "IFN-γ, PBL + COS7/A11 pulsed at 1 × 10^-13 M", "setting": "[4]", "result": 115, "unit": "pg/mL"}, {"measurement": "IFN-γ, PBL + COS/A11 minigene transfectant", "setting": "[5]", "result": 130, "unit": "pg/mL"}, {"measurement": "IFN-γ, PBL + COS/A11 minigene transfectant", "setting": "[6]", "result": "> 10000", "unit": "pg/mL"}, {"measurement": "IFN-γ, PBL + COS/A11 minigene transfectant", "setting": "[7]", "result": 126, "unit": "pg/mL"}, {"measurement": "IFN-γ, PBL + Cos7/A11 pulsed at 10^-6 M", "setting": "[8]", "result": 82, "unit": "pg/mL"}, {"measurement": "IFN-γ, PBL + Cos7/A11 pulsed at 10^-7 M", "setting": "[8]", "result": 77, "unit": "pg/mL"}, {"measurement": "IFN-γ, PBL + Cos7/A11 pulsed at 10^-8 M", "setting": "[8]", "result": 85, "unit": "pg/mL"}, {"measurement": "IFN-γ, PBL + Cos7/A11 pulsed at 10^-9 M", "setting": "[8]", "result": 102, "unit": "pg/mL"}, {"measurement": "IFN-γ, PBL + Cos7/A11 pulsed at 10^-10 M", "setting": "[8]", "result": 88, "unit": "pg/mL"}, {"measurement": "IFN-γ, PBL + Cos7/A11 pulsed at 10^-11 M", "setting": "[8]", "result": 81, "unit": "pg/mL"}, {"measurement": "IFN-γ, PBL + Cos7/A11 pulsed at 10^-12 M", "setting": "[8]", "result": 76, "unit": "pg/mL"}, {"measurement": "IFN-γ, PBL + Cos7/A11 pulsed at 10^-13 M", "setting": "[8]", "result": 92, "unit": "pg/mL"}, {"measurement": "IFN-γ, PBL + Cos7/A11 pulsed at 10^-6 M", "setting": "[9]", "result": 90, "unit": "pg/mL"}, {"measurement": "IFN-γ, PBL + Cos7/A11 pulsed at 10^-7 M", "setting": "[9]", "result": 96, "unit": "pg/mL"}, {"measurement": "IFN-γ, PBL + Cos7/A11 pulsed at 10^-8 M", "setting": "[9]", "result": 95, "unit": "pg/mL"}, {"measurement": "IFN-γ, PBL + Cos7/A11 pulsed at 10^-9 M", "setting": "[9]", "result": 88, "unit": "pg/mL"}, {"measurement": "IFN-γ, PBL + Cos7/A11 pulsed at 10^-10 M", "setting": "[9]", "result": 95, "unit": "pg/mL"}, {"measurement": "IFN-γ, PBL + Cos7/A11 pulsed at 10^-11 M", "setting": "[9]", "result": 84, "unit": "pg/mL"}, {"measurement": "IFN-γ, PBL + Cos7/A11 pulsed at 10^-12 M", "setting": "[9]", "result": 105, "unit": "pg/mL"}, {"measurement": "IFN-γ, PBL + Cos7/A11 pulsed at 10^-13 M", "setting": "[9]", "result": 103, "unit": "pg/mL"}, {"measurement": "IFN-γ, PBL + Cos7/A11 pulsed at 10^-6 M", "setting": "[10]", "result": 125, "unit": "pg/mL"}, {"measurement": "IFN-γ, PBL + Cos7/A11 pulsed at 10^-7 M", "setting": "[10]", "result": 86, "unit": "pg/mL"}, {"measurement": "IFN-γ, PBL + Cos7/A11 pulsed at 10^-8 M", "setting": "[10]", "result": 90, "unit": "pg/mL"}, {"measurement": "IFN-γ, PBL + Cos7/A11 pulsed at 10^-9 M", "setting": "[10]", "result": 92, "unit": "pg/mL"}, {"measurement": "IFN-γ, PBL + Cos7/A11 pulsed at 10^-10 M", "setting": "[10]", "result": 95, "unit": "pg/mL"}, {"measurement": "IFN-γ, PBL + Cos7/A11 pulsed at 10^-11 M", "setting": "[10]", "result": 88, "unit": "pg/mL"}, {"measurement": "IFN-γ, PBL + Cos7/A11 pulsed at 10^-12 M", "setting": "[10]", "result": 91, "unit": "pg/mL"}, {"measurement": "IFN-γ, PBL + Cos7/A11 pulsed at 10^-13 M", "setting": "[10]", "result": 84, "unit": "pg/mL"}]}]}
